Assay results from patent US8329429B2, “Method of enhancing recombinant protein production” (Induce Biologics Inc., priority 2007, dated 2012).

Columns and labels:
CHO-BMP-2 cells = type: cell-based, Chinese hamster
Protocol: Cell viability was assessed at each media collection using a ViCell cell viability analyzer (Beckman) following manufacturer's instructions.

CHO-hBMP-7 cells = test: ELISA for hBMP-7 in conditioned medium from CHO-hBMP-7 cells incubated with 9DR; type: cell-based, Chinese hamster; conditions: 24 hours, nutrient control
Protocol: Cell lines expressing the hBMP-7 transgene were prepared as per the methods described in Example 1.
Stable CHO cell lines expressing wild type BMP-7 cDNA were seeded into single wells of 24 well plates and cultured in the presence of increasing concentrations of the furin inhibitor 9DR. The conditioned medium was collected and aliquots were assayed for the presence of […] by ELISA. The amount of proBMP-7 present in the samples was estimated by western blot. Other aliquots of conditioned media were diluted with fresh medium and added to C2C12 cells to test for in vitro osteoinductive biological activity.

C2C12 cells = test: C2C12 alkaline phosphatase assay of rhBMP after PreScission digestion; type: cell-based; conditions: for ALP activity (U/μg protein) mean ± SD: n=4
Text: Alkaline phosphatase induction in C2C12 cells: The activity of recombinant hBMP-2 protein is quantitated based upon induction of alkaline phosphatase in in vitro cultured C2C12 cells, as has been described (see, e.g., Peel et al. J Craniofacial Surg. 2003; 14:284-291 and Hu et al. Growth Factors 2004; 22:29033).
C2C12 cells (ATCC accession number CRL-1772, Manassas, Va.) are passaged before confluent and resuspended at 0.5×10^5 cells/ml in MEM supplemented with 15% heat-inactivated fetal bovine serum, antibiotics and 50 μg/ml ascorbic acid. One ml of cell suspension is seeded per well of a 24 well tissue culture plate (BD Falcon, Fisher Scientific Cat #08-772-1). An aliquot of test BMP-2 sample is added and the cultures maintained at 37° C. and 5% CO2. Test BMP-2 samples included conditioned media, purified recombinant hBMP-2 isolated from conditioned media by heparin affinity chromatography, and as a positive control a commercially available purified recombinant hBMP-2 (R&D Systems, Minneapolis, USA). Control cultures (cultured in media without added BMP-2 sample) are cultured for 2 to 7 days. Medium is changed every two days.
At harvest cultures are rinsed with Tris buffered saline (20 mM Tris, 137 mM NaCl, pH 7.4) and M-Per lysis buffer (Pierce Biotechnology Inc., Rockford, Ill., catalogue #78501) is added. The cell layer is scraped into Eppendorf tubes and sonicated. The lysate is centrifuged at 5000×g at 5° C. for 10 minutes, and the supernatant assayed for alkaline phosphatase (ALP) by monitoring the hydrolysis of nitrophenol phosphate in alkaline buffer (Sigma-Aldrich, St. Louis Mo., catalog P5899) as described in Peel et al. J Craniofacial Surg. 2003; 14:284-291 or by using the Alkaline Phosphatase detection kit, Fluorescence (Sigma-Aldrich, catalogue #APF) according to manufacturer's instructions. To normalize the ALP activity the cellular protein content in each well is also assayed using the Coomasie (Bradford) Protein Assay (Pierce Biotechnology Inc., catalogue #23200). The normalized ALP activity for each sample is calculated by dividing the ALP activity per well by the protein content per well. An activity score is calculated by dividing the ALP activity for each sample by the mean ALP activity of the control and is compared to the score achieved by the positive BMP control.
Preparation of test materials: PreScission protease was obtained from Amersham Biosciences (GE Healthcare, Buckinghamshire, U.K) and was prepared according to the manufacturer's instructions. Recombinant hBMP-2 and rhBMP-7 (both CHO cell produced) were obtained from R&D Systems. The rhBMP samples were resuspended in 4 mM HCl to a final concentration of 10 μg/ml. Bovine serum albumin (BSA) was not included so that the only substrate for the protease was BMP. The cleavage buffer was prepared (50 mM Tris-HCl, 150 mM NaCl, 1 mM EDTA, pH 7).
Assessment of activity: Samples underwent digestion at room temperature for 6 hours. Reactions were stopped by freezing at −20° C. Digestion samples were diluted in alpha MEM+15% FBS and tested for BMP activity using the C2C12 assay described in Example 1.

Molecule: N=C(N)NCCC[C@@H](N)C(=O)N[C@H](CCCNC(=N)N)C(=O)N[C@H](CCCNC(=N)N)C(=O)N[C@H](CCCNC(=N)N)C(=O)N[C@H](CCCNC(=N)N)C(=O)N[C@H](CCCNC(=N)N)C(=O)N[C@H](CCCNC(=N)N)C(=O)N[C@H](CCCNC(=N)N)C(=O)N[C@H](CCCNC(=N)N)C(N)=O [9DR, nona-D-arginine amide]
- effect on cell viability (CHO-BMP-2 cells): did not affect cell viability

Molecule: N=C(N)NCCC[C@@H](N)C(=O)O [DR, D arginine]
- mature hBMP-7 in medium versus medium only (CHO-hBMP-7 cells): no difference

B1: rhBMP-7: recombinant human BMP-7, CHO cell produced, obtained from R&D Systems (protein)
chain: STGSKQRSQNRSKTPKNQEALRMANVAENSSSDQRQACKKHELYVSFRDLGWQDWIIAPEGYAAYYCEGECAFPLNSYMNATNHAIVQTLVHFINPETVPKPCCAPTQLNAISVLYFDDSSNVILKKYRNMVVRACGCH
- ALP activity (U/μg protein) mean ± SD (C2C12 cells; group 2: 20 μl rhBMP (10 μg/ml), no protease, no cleavage buffer (unincubated)): 7.1 ± 0.5 U/μg protein
- ALP activity (U/μg protein) mean ± SD (C2C12 cells; group 3: 20 μl rhBMP + 15 μl PreScission protease + 165 μl cleavage buffer, room temperature 6 hours): 2.9 ± 0.2 U/μg protein
- ALP activity (U/μg protein) mean ± SD (C2C12 cells; group 4: 20 μl rhBMP + 180 μl cleavage buffer alone, room temperature 6 hours): 4.0 ± 0.3 U/μg protein
- activity after PreScission digestion (C2C12 cells; room temperature for 6 hours): remained active
- activity after PreScission digestion compared to control BMP incubated in cleavage buffer alone (C2C12 cells; room temperature for 6 hours): No loss of activity
